This passage reports HK-2 cell proliferation (cell count), 150 ng/ml total rice medium protein (5 ng H-EGF) results from patent publication US20160017353A1.

The target in the assay is EGF receptor (EGFR) (human) (UniProt P00533). The experiment in a line: cell-based or functional assay.

In turn, “recombinant HSA-EGF fusion protein (human serum albumin fused to the N-terminal end of human EGF), secreted from transgenic rice cell line H-EGF 43 (from UniProt P02768 25-609) (ligand)” had an HK-2 cell proliferation (cell count), 150 ng/ml total rice medium protein (5 ng H-EGF) of 2.9 fold.
